Data reported in patent US20190367572A1.

Target: sonic hedgehog protein (SHH), endogenous in rat MPG/CN organ culture (rat) (UniProt Q63673)
Test: cell-based or functional assay

sonic hedgehog protein (SHH), endogenous in rat MPG/CN organ culture (rat), sequence (Q63673 25-198 limits assumed): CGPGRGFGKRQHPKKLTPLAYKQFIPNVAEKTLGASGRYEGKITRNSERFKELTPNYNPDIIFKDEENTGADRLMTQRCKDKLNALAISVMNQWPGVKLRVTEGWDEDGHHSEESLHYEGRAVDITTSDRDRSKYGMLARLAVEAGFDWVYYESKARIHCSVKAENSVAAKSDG

## 5E1 SHH inhibitor (antibody)
  neurite formation (growth cones per mm) in uninjured MPG/CN organ culture, three days: 86 % reduction
  neurite formation (growth cones per mm) in uninjured MPG/CN organ culture, three days (fold reduction): 7.3
